Test results: the supplement of paper PMC9732359
± gives the uncertainty stated by the source.

Test: protein stability index of a GFP-peptide fusion (yeast GPS) (PSI 1-4); higher = more stable; sorted into four equal gates, so the index is relative within each strain
In short: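 The protein stability index combines read frequencies across sorting gates, each weighted by its gate number and then summed. To obtain those frequencies, a pooled yeast library of GFP fusions to tiled 17-residue yeast protein peptides, on a plasmid also expressing Cherry, was grown to mid-log phase in leucine-free medium. The cells were sorted into four equal gates by GFP/Cherry ratio before plasmid amplification by PCR and Illumina sequencing.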

| Sequence | protein stability index (doa10∆) | protein stability index (pdr5∆) | protein stability index (san1∆) | protein stability index (ubr1∆) |
| --- | --- | --- | --- | --- |
| LRIVKPTVSLTINLDRF [RPC82] | 2.29 ± 0.068 | 2.29 ± 0.054 | 2.46 ± 0.063 | 2.43 ± 0.11 |
| LRKIQALRDVKNNNNAN [GAL11] | 3.05 ± 0.077 | 2.87 ± 0.097 | 3.15 ± 0.1 | 3.11 ± 0.071 |
| LRLLLLLIEFPYLPKHY [YJR042W/NUP85] | 1.81 ± 0.052 | 1.72 ± 0.054 | 1.55 ± 0.062 | 1.76 ± 0.047 |
| LRLSNFFTIDHFIQKLH [SIR2] | 2.32 ± 0.085 | 2.2 ± 0.07 | 2.23 ± 0.074 | 2.05 ± 0.068 |
| LRNKLIESNKLAGVLYE [RRP6] | 2.72 ± 0.16 | 3.04 ± 0.21 | 2.79 ± 0.28 | 2.73 ± 0.18 |
| LRNVFLGKCSRITDASL [GRR1] | 2.94 ± 0.066 | 2.81 ± 0.097 | 2.68 ± 0.07 | 2.82 ± 0.05 |
| LRPLFTRYELYIKNILE [YLR335W/NUP2] | 1.6 ± 0.053 | 1.88 ± 0.044 | 1.8 ± 0.081 | 1.93 ± 0.033 |
| LRRASATVPSAPYRKQI [YAR002W/NUP60] | 2.72 ± 0.095 | 2.93 ± 0.11 | 2.07 ± 0.13 | 2.64 ± 0.068 |
| LRRVEERFTKSKTLSLI [FAS1] | 2.31 ± 0.076 | 2.09 ± 0.059 | 2.17 ± 0.087 | 1.79 ± 0.037 |
| LRSDIPCLSRSCTKCPQ [DIS3] | 2.89 ± 0.04 | 2.94 ± 0.04 | 2.91 ± 0.031 | 2.92 ± 0.033 |
| LRSNKCILYDADESKMA [RET1] |  | 3.07 ± 0.18 |  |  |
| LRSTIANLLQINVDNDP [YML103C/NUP188] | 2.21 ± 0.1 | 1.4 ± 0.13 |  | 1.15 ± 0.15 |
| LRYVIMKNPDVEFCGYS [RPC19] | 2.2 ± 0.14 | 2.07 ± 0.081 | 2.3 ± 0.15 | 2.87 ± 0.091 |
| LSAEYLVILKPDLNIDR [SIN4] | 2.97 ± 0.063 | 3.1 ± 0.1 | 2.97 ± 0.058 | 2.94 ± 0.045 |
| LSATGTRSAKKMVIAEL [YJR042W/NUP85] |  |  | 2.97 ± 0.15 |  |
| LSAVAQAESMKFKLLNG [RPS3] | 3.06 ± 0.1 | 3.21 ± 0.1 | 2.83 ± 0.12 | 3.09 ± 0.079 |
| LSEATESDLYKLKECPF [RPB2] | 3.12 ± 0.11 | 2.91 ± 0.19 | 3.23 ± 0.1 | 2.91 ± 0.1 |
| LSEDELRELDVELIESK [SMC4] | 3.33 ± 0.18 | 3.72 ± 0.24 | 3.4 ± 0.11 | 3.23 ± 0.073 |
| LSESLTKFFDDAKSTPL [RPN9] | 3.01 ± 0.07 | 3.26 ± 0.069 | 3.18 ± 0.055 | 3.12 ± 0.068 |
| LSEYDAIQKKDNKDKEG [YOR098C/NUP1] | 3.35 ± 0.13 | 3.33 ± 0.097 | 3.38 ± 0.11 | 3.38 ± 0.067 |
| LSEYLTKFQTTDRESYP [YCS4] |  | 3.28 ± 0.2 |  | 2.94 ± 0.14 |
| LSFGTATSDNKTTNTTP [YJL041W/NSP1] | 2.21 ± 0.088 | 3.05 ± 0.083 | 2.24 ± 0.1 | 2.15 ± 0.094 |
| LSFINPKTGKVERSEAI [SEC65] | 3.6 ± 0.17 | 3.47 ± 0.081 | 3.33 ± 0.14 | 3.22 ± 0.073 |
| LSGNPLTSVTNDICSVE [SIR4] | 2.54 ± 0.068 | 2.95 ± 0.064 | 3.09 ± 0.058 | 2.96 ± 0.062 |
| LSGVSNSMDMVDGMAKV [RGR1] | 3.48 ± 0.11 | 3.29 ± 0.11 | 3.44 ± 0.13 | 3.34 ± 0.064 |
| LSIAFENGDYAACEKLL [RPN12] | 3.13 ± 0.17 | 3 ± 0.12 | 3.16 ± 0.077 | 3.24 ± 0.12 |
| LSIDKVLKKPNRAMEYD [RET1] | 3.01 ± 0.18 | 2.56 ± 0.16 | 3.18 ± 0.2 | 1.98 ± 0.28 |

| Sequence | protein stability index (doa10∆) | protein stability index (pdr5∆) | protein stability index (san1∆) | protein stability index (ubr1∆) |
| --- | --- | --- | --- | --- |
| LSIELEGGKNQAELLQL [YJL039C/NUP192] | 2.85 ± 0.14 | 3.11 ± 0.099 | 3.31 ± 0.21 | 2.67 ± 0.11 |
| LSINKNFINQEDEGEER [RPC17] |  | 3.29 ± 0.28 |  |  |
| LSLGMDFIKFDQIAVCE [BRN1] | 3 ± 0.085 | 3.01 ± 0.079 | 2.77 ± 0.057 | 2.89 ± 0.071 |
| LSLQRANVEILAVEDKP [CSL4] | 1.35 ± 0.054 | 1.44 ± 0.061 | 1.67 ± 0.092 | 1.61 ± 0.044 |
| LSNEFTATNSKGEQIAI [ECM29] | 3.06 ± 0.11 | 3.25 ± 0.12 | 2.91 ± 0.18 | 3.26 ± 0.11 |
| LSQLCAVPLQIVSPQSN [RPO21] | 1.88 ± 0.063 | 1.91 ± 0.058 | 1.9 ± 0.084 | 1.87 ± 0.04 |
| LSQSRIKIKSLEYEISK [YIL149C/MLP2] | 2.08 ± 0.051 | 2.68 ± 0.055 | 2.37 ± 0.07 | 2.07 ± 0.041 |
| LSRPSLPKIKTVRKSIA [RPL35A] | 1.54 ± 0.06 | 1.94 ± 0.073 | 2.31 ± 0.059 | 1.85 ± 0.054 |
| LSSDDLLGKESFKKIIK [YCS4] | 3.25 ± 0.19 | 3.08 ± 0.22 | 3.39 ± 0.063 | 3.57 ± 0.1 |
| LSTSEDVSIEELLREWL [IRR1] | 3.25 ± 0.16 | 2.31 ± 0.21 |  | 1.53 ± 0.15 |
| LSVMCGCGTVKRFNIGA [RPR2] | 3.16 ± 0.21 | 2.97 ± 0.12 | 3.14 ± 0.14 | 2.07 ± 0.18 |
| LSVVKYLLASLKDSKDF [RPN9] | 2.19 ± 0.12 | 2.67 ± 0.16 |  |  |
| LSYYVEETNVDIGVLEE [SMC4] |  | 3.38 ± 0.22 | 3.62 ± 0.072 | 3.5 ± 0.1 |
| LTCSLYELYINKLTILG [IRR1] | 1.36 ± 0.032 | 1.36 ± 0.04 | 1.34 ± 0.059 | 1.48 ± 0.045 |
| LTDKDAFETHYRRLFAK [CDC53] | 2.94 ± 0.057 | 3.19 ± 0.067 | 2.97 ± 0.047 | 2.97 ± 0.043 |
| LTIKDIVLGVKDLQENL [RPO21] |  | 2.86 ± 0.29 | 3.6 ± 0.048 |  |
| LTKKYSFKIFVDVLVIS [RRP42] | 1.22 ± 0.049 | 1.25 ± 0.051 | 1.41 ± 0.071 | 1.44 ± 0.039 |
| LTLDPRYIWRSLKDLSS [RPN3] | 2.78 ± 0.14 | 2.39 ± 0.29 | 2.82 ± 0.097 |  |
| LTLKEAELLVLKILKQV [PUP2] | 2.05 ± 0.29 | 2.4 ± 0.26 |  | 1.63 ± 0.25 |
| LTLLERKWVIFITKHLP [NUT1] | 2.59 ± 0.089 | 1.68 ± 0.064 | 1.45 ± 0.13 | 2.57 ± 0.079 |
| LTLQEDYIKDEQRHLKR [RPT3] | 3.43 ± 0.11 | 3.18 ± 0.081 | 3.14 ± 0.085 | 3.32 ± 0.07 |
| LTNLLSQLNIQLSQDEH [SRP72] | 3.01 ± 0.048 | 3.03 ± 0.051 | 3.21 ± 0.046 | 3.09 ± 0.042 |
| LTQLLSMMSDGIEHFDI [RPO31] | 2.93 ± 0.073 | 3.05 ± 0.085 | 3.1 ± 0.052 | 2.72 ± 0.089 |
| LTSDLVYFGDENKVMLP [RRI2] | 3.21 ± 0.093 | 3.34 ± 0.089 | 3.07 ± 0.076 | 3.03 ± 0.068 |
| LTSGLLYSYLIKENFFE [YJL039C/NUP192] | 1.9 ± 0.1 | 1.74 ± 0.14 | 1.71 ± 0.12 | 1.2 ± 0.077 |
| LTSVTRHGFNRSNTGAL [RPO21] | 2.48 ± 0.067 | 2.39 ± 0.063 | 2.75 ± 0.093 | 2.51 ± 0.058 |
| LTTAREHHSSVKYASPN [FAS2] | 3.02 ± 0.065 | 3.11 ± 0.057 | 3.04 ± 0.041 | 3.06 ± 0.04 |
